Assay results reported in patent US20200270319A1 (KOLON TISSUEGENE, published 2020).

Molecular target: Recombinant human PTEN protein (human, UniProt P60483 1-403 (dog entry))
Assay: cell-based or functional assay

Sequence of Recombinant human PTEN protein (P60483 whole entry): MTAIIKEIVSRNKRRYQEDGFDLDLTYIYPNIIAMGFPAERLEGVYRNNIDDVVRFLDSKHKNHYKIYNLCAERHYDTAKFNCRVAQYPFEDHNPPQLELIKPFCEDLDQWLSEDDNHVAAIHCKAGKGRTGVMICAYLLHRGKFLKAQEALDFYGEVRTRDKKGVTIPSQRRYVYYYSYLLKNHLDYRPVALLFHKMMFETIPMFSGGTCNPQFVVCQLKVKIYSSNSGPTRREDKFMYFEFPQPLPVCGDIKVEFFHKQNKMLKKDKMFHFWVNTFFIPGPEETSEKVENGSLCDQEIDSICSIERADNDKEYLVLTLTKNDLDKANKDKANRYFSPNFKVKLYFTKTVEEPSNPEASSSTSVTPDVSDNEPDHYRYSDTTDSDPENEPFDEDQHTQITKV

## RRRRRRRRHYRYVDTTDVDPENEPFDEDQHTQITKV (C-terminal amide) [TGN-3 peptide]
  IC50, in vitro PTEN activity assay (lipid phosphatase, C8-PIP3 liposome, Malachite Green): 87.1 µM
  PTEN activity remaining with 10 µM peptide, compared with positive control: 86%
